Experimental data reported in patent CN114349850A (JIANG QINGHUA; WANG PINGPING; STEP HIGH; ZHAO DONGMING, dated 2022).

Experiments:
SARS-CoV-2 Spike蛋白 = SARS-CoV-2 Spike蛋白 (SARS-CoV-2, UniProt P0DTC2 16-1213); experiment: cell-based or functional assay
SARS-CoV-2 Spike RBD区域蛋白 = SARS-CoV-2 Spike RBD区域蛋白 (SARS-CoV-2, UniProt P0DTC2 319-541); experiment: competitive ELISA, GD1-69 against ACE2 for SARS-CoV-2 S protein / RBD

B1: GD1-69 (antibody, human IgG1, kappa, V domains shown)
VH: EVQLLESGGGLVQPGGSLRLSCAASGFTFSNYAMSWVRQAPGKGLEWVSVIYSGVSSTYYEDSVKGRFTISRDNSKNTLYLQMNSLRAEDTAVYYCAKDPSYDTRGYIFDYWGQGTLVTVSS
VL: DIVMTQSPATLSVSPGERATLSCRASQSVSTNLAWYQQKPGQAPRLLIYGTSTRATGVPARFSGSGSGTEFTLTISSLQSEDFAIYYCLQYNNWRTFGQGTKLEIKR
notes: also called 目标抗体; GD1-69抗体
With B1 the “噬斑减少中和测试 (活SARS-CoV-2病毒, Vero E6细胞) IC50” value (SARS-CoV-2 Spike蛋白) was 0.44 µg/mL, the “基于假病毒的中和试验 IC50” value (SARS-CoV-2 Spike蛋白) was 1.77 µg/mL and the IC50 (SARS-CoV-2 Spike RBD区域蛋白) was 0.26 µg/mL.
